This series concerns the target T1, Avi-FtsYNG (UniProt P10121 196-497).
T1 sequence: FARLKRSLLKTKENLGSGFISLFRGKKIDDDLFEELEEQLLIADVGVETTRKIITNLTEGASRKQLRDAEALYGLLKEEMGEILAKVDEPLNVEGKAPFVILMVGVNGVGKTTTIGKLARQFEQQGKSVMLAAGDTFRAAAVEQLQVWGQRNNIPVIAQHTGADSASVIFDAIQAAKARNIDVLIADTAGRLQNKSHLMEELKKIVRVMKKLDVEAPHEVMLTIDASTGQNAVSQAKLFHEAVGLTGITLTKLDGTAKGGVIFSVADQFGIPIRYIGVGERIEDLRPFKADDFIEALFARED
In words: SPR; 10 C; RNA over immobilised protein; curve incomplete, fit fixed with GDP control; figure legend swaps panels with PNAtet; SPR: 20 mM HEPES pH 7.5, 150 mM NaCl, 3 mM MgCl2, 1 mM TCEP, 1% glycerol, 0.005% Tween, 10 C; MST: 50 mM HEPES pH 7.5, 100 mM NaCl, 1.5 mM MgCl2, 10% glycerol. The note with it: protein: recombinant; tags: Avi tag, biotinylated, immobilised on streptavidin; hairpin, 5 bp stem. In general terms: SPR reads the build-up and loss of mass on a sensor chip optically.

As usually defined, the Kd is the concentration at which binding is half-saturated. As to GCGCCGGAAGGCGC (structured_RNA, first and last two phosphodiester bonds replaced by phosphorothioate) [moRNAtet], the Kd is 160 ± 20 µM.

Values taken from PMC11404819, “Peptide nucleic acids can form hairpins and bind RNA-binding proteins”.
